{
  "source": "patent US7919091B2",
  "about": "“Lipolysis stimulated receptor (LSR) specific antibodies” (Serono Genetics Institute S.A., priority 1997, dated 2011)",
  "molecules": {"B1": {"name": "leptin: mouse recombinant leptin with hexahistidine end, expressed in E. coli (protein, UniProt P41160 22-167, looked up)", "Leptin": "VPIQKVQDDTKTLIKTIVTRINDISHTQSVSAKQRVTGLDFIPGLHPILSLSKMDQTLAVYQQVLTSLPSQNVLQIANDLENLRDLLHLLAFSKSCSLPQTSGLQKPESLDGVLEASLYSTEVVALSRLQGSLQDILQQLDVSPEC", "modifications": "hexahistidine tag", "notes": "mouse recombinant leptin with hexahistidine end, expressed in E. coli"}},
  "format_in_all_cases": "in vivo",
  "key": {"[1]": {"experiment": "Clearance of 125I-leptin in mice", "procedure": "The female control, ob/ob, or db/db mice (6-8 weeks), on an empty stomach, are anaesthetized and receive via the saphenous vein an injection of 80 ng of murine recombinant ^125I-leptin or of ^125I-β2-microglobulin (Sigma, labelled by the Iodobeads method, like leptin). Five minutes later, the animals are infused with a physiological saline solution (15 ml, at 4° C.). The tissues are collected and counted for their radioactivity (Gamma counter). In some cases, an anti-LSR antibody or a control protein are injected 30 minutes after injection of ^125I-leptin. It is important to note that the labelling of leptin with ^125I has no effect on its biological activity."}, "[2]": {"experiment": "Postprandial lipemic response in mice after a high-fat meal", "conditions": "50 μg leptin i.v. with test meal; ob/ob, db/db and control mice", "procedure": "Control, ob/ob and db/db mice, starved since the day before, are force-fed with a meal which is very high in fat [60% fat (37% saturated, 27% monounsaturated and 36% polyunsaturated fatty acids), 20% protein and 20% carbohydrate] providing 56 kcal of energy/kg of the weight of the animal. Immediately after the meal (time=0 hour), the mice are injected intravenously with 200 μl of physiological saline solution. At various times, 20 μl of blood are collected via the caudal vein in tubes containing 90 μg of disodium EDTA, and after separating the plasma by centrifugation, the plasma concentration of triglyceridemia is determined with the aid of an enzymatic assay kit. Each point on the curves presented corresponds to the mean with standard deviation obtained for 3 measurements per animal and for 3 different animals.\nThe procedure is the same as above, except that immediately after the meal (time=0 hour), the mice are injected intravenously with either 200 μl of physiological saline solution, or 200 μl of the same solution containing 50 μg of murine recombinant leptin.\nob/ob mice, starved since the day before, are force-fed with a meal identical to that described above. […] Blood is collected between 2 and 3 hours after the meal and the plasma concentration of triglycerides (TG) is measured. […]"}, "[3]": {"experiment": "Long-term treatment with leptin on ob/ob mice: weight and postprandial lipemic response", "procedure": "The ob/ob obese mice received a daily injection of either leptin, or of an equivalent volume of sterile PBS, for 30 days. The injected doses are 50 μg/animal from day 0 to day 4, 100 μg/animal from day 5 to day 17, and 150 μg/animal from day 18 to day 30. Several parameters indicated below are measured: • the weight (FIG. 29 A): the change in weight is measured for 6 animals, over the duration of the treatment; • the postprandial lipemic response (FIG. 29 B): it is measured according to the protocol detailed in Example 5 on three animals in each group, on day 29; • the apparent number of LSR receptors (FIG. 29 C): it is measured according to the protocol detailed in Example 4 on three animals in each group, on day 30; • the quantity of LSR mRNA ([…]): it is estimated by Northern blotting as indicated in the protocol of Example 2."}},
  "data": [
    {"molecule": "B1", "values": [
      {"measurement": "renal capture of leptin", "setting": "[1]; between control, ob/ob and db/db lines, 5 minutes after injection", "result": "no difference"},
      {"measurement": "quantity of leptin selectively captured by the liver", "setting": "[1]; obese (ob/ob, db/db) mice compared with control mice, 5 minutes after injection", "result": "reduced"},
      {"measurement": "speed of clearance", "setting": "[1]; radiolabelled recombinant leptin, obese and control mice", "result": "rapid speed of clearance"},
      {"measurement": "injected dose found in liver and kidney", "setting": "[1]; radiolabelled recombinant leptin, obese and control mice, after 10 minutes", "result": 50, "unit": "%"},
      {"measurement": "postprandial lipemic response (plasma triglycerides)", "setting": "[2]", "result": "reduce"},
      {"measurement": "weight", "setting": "[3]; daily leptin injection over 30 days", "result": "very significant loss of weight"},
      {"measurement": "postprandial lipemic response", "setting": "[3]; day 29 of leptin treatment", "result": "clear reduction"}
    ]}
  ]
}
